From article PMC6447637, “Ca^2+-dependent regulation of sodium channels NaV1.4 and NaV1.5 is controlled by the post-IQ motif” (Nature Communications, 2019) come the findings set out here.

Conditions in all cases: both partners purified
The target of assay [1] is T1, calmodulin (full-length mammalian calmodulin, R. norvegicus CALM2) (R. norvegicus, UniProt P0DP30 1-149).
T1 construct: full-length mammalian calmodulin, R. norvegicus CALM2, 100% amino acid identity with H. sapiens CaM, in pET24b; Ca2+-free (apo, 50 µM EGTA) and Ca2+-saturated ((Ca2+)4, 1 mM CaCl2) states are the same molecule; the assays tell them apart; also called CaM; CaM WT; source: E. coli BL21-CodonPlus RIL; for ITC expressed alone and purified (two Phenyl FF columns); for crystals co-expressed and …
The assay is described as follows: ITC; Ca2+-free: CTerm (2–25 µM) in the sample cell, CaM (30–1000 µM) as titrant; 20 mM MOPS, 150 mM NaCl, 1 mM MgCl2, 50 µM EGTA; VP-ITC, single binding site fit, one replicate.

Assay [2] deals with T1, calmodulin (full-length mammalian …). The experiment in a line: ITC; Ca2+-saturating: CTerm (2–25 µM) in the sample cell, CaM, CaM12 or CaM34 (30–1000 µM) as titrant; 20 mM MOPS, 150 mM NaCl, 1 mM MgCl2, 50 µM EGTA with 1 mM CaCl2; VP-ITC, single binding site fit, one replicate.
In assay [3] the target is T2, calmodulin (full-length mammalian, CALM2) (R. norvegicus, UniProt P0DP30 1-149).
T2 construct: Full-length mammalian calmodulin (R. norvegicus CALM2; 100% amino acid identity with H. sapiens CaM), 148 residues; apo CaM and (Ca2+)4-CaM are the same protein without and with 1 mM CaCl2; the two conditions are two assays; also called CaM; WT CaM; source: E. coli BL21-CodonPlus RIL, purified (two Phenyl FF columns)
The experiment in a line: ITC; CaM species in the syringe, NaV CTerm in the cell; Ca2+-free: 20 mM MOPS, 150 mM NaCl, 1 mM MgCl2, 50 µM EGTA; VP-ITC; fitted to a single binding site per monomer, error of the fit; one replicate. In general terms: In ITC the heat of successive injections is recorded.

The target in assay [4] is T2, calmodulin (full-length mammalian, …). The assay is described as follows: ITC; CaM species in the syringe, NaV CTerm in the cell; Ca2+-saturating: 20 mM MOPS, 150 mM NaCl, 1 mM MgCl2, 50 µM EGTA with 1 mM CaCl2; VP-ITC; fitted to a single binding site per monomer, error of the fit; one replicate.

B1: NaV1.4 CTerm Short (residues 1599–1754), freed of CaM for ITC (domain or fragment)
chain: ENFNVATEESSEPLGEDDFEMFYETWEKFDPDATQFIAYSRLSDFVDTLQEPLRIAKPNKIKLITLDLPMVPGDKIHCLDILFALTKEVLGDSGEMDALKQTMEEKFMAANPSKVSYEPITTTLKRKHEEVCAIKIQRAYRRHLLQRSMKQASYMYLTRAAAS
notes: additional 7 residues at the C-terminus of the construct; source: E. coli BL21-CodonPlus RIL, co-expressed with CaM, purified (Glutathione Sepharose; CaM removed by a TFP and Ca2+ wash; eluted with glutathione; 70% pure)
By Kd is commonly meant the free concentration of one partner at which half of the binding sites on the other are occupied at equilibrium, for simple one-to-one binding. The low end stands for tighter binding, the high end for weaker binding. B1: the Kd in assay [1] came out at 114 nM; in assay [2] it was 305 nM.

B2: NaV1.4 CTerm Long (residues 1599-1764) (domain or fragment)
chain: ENFNVATEESSEPLGEDDFEMFYETWEKFDPDATQFIAYSRLSDFVDTLQEPLRIAKPNKIKLITLDLPMVPGDKIHCLDILFALTKEVLGDSGEMDALKQTMEEKFMAANPSKVSYEPITTTLKRKHEEVCAIKIQRAYRRHLLQRSMKQASYMYRHSHDGSGDD
notes: The text layer of the ITC plots in D1 (p5, p9); not shown: GST, N-terminal, kept
For the molecule B2, the results for the Ka in assay [3] and in assay [4] were 5.85e+07 M⁻¹ and 3.63e+06 M⁻¹, respectively.

B3: NaV1.4 CTerm Long (residues 1599–1764), freed of CaM for ITC (domain or fragment)
chain: B2 chain
notes: H. sapiens NaV1.4 (SCN4A) C-terminal domain, a.a; the protein may have carried GST in the titrations; source: E. coli BL21-CodonPlus RIL, co-expressed with CaM, purified (Glutathione Sepharose; CaM removed by a TFP and Ca2+ wash; eluted with glutathione; 70% pure)
As for B3, the values for the equilibrium dissociation constant (Kd) in assay [1] and in assay [2] were 17 nM and 275 nM, respectively.
